Results: patent US20090181444A1, “MODIFIED CARBOHYDRATE PROCESSING ENZYME” (priority 2002, published 2009)

Tests used:
[1] = Parallel one-pot glycoside synthesis (transglycosylation to MeOH); format: biochemical; details: 50° C., 1:9 MeOH:phosphate buffer pH 6.5
Experimental: Enzyme (WT, […] or E432C, 1 mg) was added to a mixed solution (1 mL) of para-nitrophenyl (pNP) β-D-manno-, galacto-, gluco- and xylo- pyranosides (0.03 mmol of each) in 1:9 MeOH:phosphate buffer (pH 6.5) and incubated at 50° C. for 45 min (WT), 4 h (WT), 8 h (W433C, E432C). After this time the solutions were extracted with EtOAc to remove para-nitrophenol and passed through short Sephadex and Celite:Graphite (1:1) columns to remove protein, pNP-glycoside and remaining para-nitrophenol. Solvent was removed and product mixtures were analysed by ^1H NMR and ESMS. Yields based on donor were calculated from integration of anomeric proton resonances in ^1H NMR (D2O, 500 MHz): α-Gal (δ 5.12, d, […]), α-Glc (δ 5.08, d, 3.8 Hz), α-Xyl (δ 5.04, d, J=3.4 Hz), α-Man (δ 5.03, d, J=1.8 Hz), β-Man (δ 4.75, s), β-Glc (δ 4.49, d, J=8.0 Hz), P-Gal (δ 4.45, d, 7.9 Hz), Me-β-Man (δ 4.44, s), β-Xyl (δ 4.42, d, J=7.8 Hz), Me-β-Glc (δ 4.23, d, J 8.1 Hz), Me-β-Xyl (δ 4.18, d, J=7.8 Hz), Me-β-Gal (δ 4.17, d, J=8.0 Hz).
Scheme 1: Parallel glycoside syntheses using SSβG-WT, -E432C and -W433C as catalysts. […] Such balanced libraries are not produced by SSβG-WT even under varying reaction times.

[2] = Hydrolysis of 4-methylumbelliferyl-β-D-galactoside, initial rates; format: biochemical; details: 4-MUGal, 80° C., pH 6.5
Experimental: Parameters were determined by the method of initial rates. Activity was measured in time course assays of the hydrolysis of 4-methylumbelliferyl-β-D-glycosides (β-D-gluco, β-D-galacto, β-D-fuco, β-D-manno, β-D-xylo, β-D-glucurono) at 5-15 concentrations (0.001-1.5 mM) incubated at 80° C. in 50 mM sodium phosphate buffer, pH 6.5. Reactions were terminated at 2, 5, 10, 15 min by the addition of 100 μl of ice cold 1M NazCO3, pH 10 and analyzed (Labsystems Fluoroscan Ascent plate reader, […]). KM and kcat were derived by fitting the initial rates to hyperbolic Michaelis-Menten curves using GraFit 4 (Erithacus Software Ltd, Staines, UK).
Determination of the Michaelis-Menten parameters for the WT and mutant enzymes was performed at pH 6.5 at 80° C. for a broad range of representative, fluorophore-containing 4-methylumbelliferyl glycoside substrates, which allowed activities to be determined with a high degree of sensitivity (Table). Under these optimized assay conditions, the glucoside (Glc), galactoside (Gal) and fucoside (Fuc) substrates were hydrolysed well by SSβG-WT, but the xyloside (Xyl) substrate was hydrolysed relatively poorly (approx. 3% of turnover as determined by kcat compared with β-D-glucoside). […] In all cases the absolute D-stereospecificity and β-stereoselectivity of SSβG was maintained and no activity was detected towards L- or α-glycoside substrates.

B1: WT: Wild type β-glycosidase from Sulfolobus solfataricus (SEQ ID NO: 2), recombinant with N-terminal His6-tag (protein, listed as Sulfolobus solfataricus)
chain: MYSFPNSFRFGWSQAGFQSEMGTPGSEDPNTDWYKWVHDPENMAAGLVSGDLPENGPGYWGNYKTFHDNAQKMGLKIARLNVEWSRIFPNPLPRPQNFDESKQDVTEVEINENELKRLDEYANKDALNHYREIFKDLKSRGLYFILNMYHWPLPLWLHDPIRVRRGDFTGPSGWLSTRTVYEFARFSAYIAWKFDDLVDEYSTMNEPNVVGGLGYVGVKSGFPPGYLSFELSRRHMYNIIQAHARAYDGIKSVSKKPVGIIYANSSFQPLTDKDMEAVEMAENDNRWWFFDAIIRGEITRGNEKIVRDDLKGRLDWIGVNYYTRTVVKRTEKGYVSLGGYGHGCERNSVSLAGLPTSDFGWEFFPEGLYDVLTKYWNRYHLYMYVTENGIADDADYQRPYYLVSHVYQVHRAINSGADVRGYLHWSLADNYEWASGFSMRFGLLKVDYNTKRLYWRPSALVYREIATNGAITDEIEHLNSVPPVKPLRH
modifications: N-terminal His6 tag
In the case of B1, the “Yield of Products, product 1 (β-glycoside of Glc)” value ([1]; 45 min) is reported as 40%, the “Yield of Products, product 2 (β-glycoside of Gal)” value ([1]; 45 min) is reported as 33% and the “Yield of Products, product 3 (β-glycoside of Man)” value ([1]; 45 min) is reported as 2%. For the same molecule, the “Yield of Products, product 4 (β-glycoside of Xyl)” value ([1]; 45 min) was 3%, the “Yield of Products, product 5” value ([1]; 45 min) was 14% and the “Yield of Products, product 6” value ([1]; 45 min) was 8%. The “Yield of Products, product 3 (β-glycoside of Man)” value ([1]; 4 h) was 8%, the “Yield of Products, product 4 (β-glycoside of Xyl)” value ([1]; 4 h) was 20% and the “Yield of Products, product 5” value ([1]; 4 h) was 33%. The “Yield of Products, product 6” value ([1]; 4 h) was 30%, the “Yield of Products, product 7” value ([1]; 4 h) was 4% and the “Yield of Products, product 8” value ([1]; 4 h) was 5%. The Km [2] was 66 ± 17 µM and the kcat [2] was 98 ± 7 s⁻¹.
